Source: publication PMC9482650, “Quantitative fragmentomics allow affinity mapping of interactomes” (Nature Communications, 2022)

T1: ARHGAP21, Q5T5U3
T1 sequence (Q5T5U3 45-169, limits assumed, looked up): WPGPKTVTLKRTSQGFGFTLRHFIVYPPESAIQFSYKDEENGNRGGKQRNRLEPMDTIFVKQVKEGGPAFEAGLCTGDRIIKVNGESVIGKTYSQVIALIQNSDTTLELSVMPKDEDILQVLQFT

T2: MPDZ_5, O75970
T2 sequence (O75970 695-796, limits assumed, looked up): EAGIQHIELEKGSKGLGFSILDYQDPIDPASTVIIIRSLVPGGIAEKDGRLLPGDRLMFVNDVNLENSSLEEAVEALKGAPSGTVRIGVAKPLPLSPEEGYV

T3: MPDZ_10, O75970
T3 sequence (O75970 1624-1722, limits assumed, looked up): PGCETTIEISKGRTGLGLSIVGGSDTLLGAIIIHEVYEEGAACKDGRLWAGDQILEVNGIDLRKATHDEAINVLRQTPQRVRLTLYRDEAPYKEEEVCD

T4: DLG3_3, Q92796
T4 sequence (Q92796 374-475, limits assumed, looked up): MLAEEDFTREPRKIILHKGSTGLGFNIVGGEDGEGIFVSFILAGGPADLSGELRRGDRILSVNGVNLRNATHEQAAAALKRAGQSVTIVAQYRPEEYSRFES

T5: PDZD2_2, O15018
T5 sequence (O15018 329-429, limits assumed, looked up): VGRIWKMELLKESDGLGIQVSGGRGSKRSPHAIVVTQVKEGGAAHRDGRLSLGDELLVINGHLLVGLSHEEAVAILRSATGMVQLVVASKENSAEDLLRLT

T6: NHERF3_1, Q5T2W1
T6 sequence (Q5T2W1 4-100, limits assumed, looked up): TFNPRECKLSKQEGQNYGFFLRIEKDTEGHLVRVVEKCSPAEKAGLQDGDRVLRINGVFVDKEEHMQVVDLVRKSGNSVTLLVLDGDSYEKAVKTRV

T7: APBA1_2, Q02410
T7 sequence (Q02410 742-832, limits assumed, looked up): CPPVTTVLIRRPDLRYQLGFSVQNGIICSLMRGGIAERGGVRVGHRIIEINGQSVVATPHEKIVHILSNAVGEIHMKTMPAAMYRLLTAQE

T8: MPP7, Q5T2T1
T8 sequence (Q5T2T1 134-230, limits assumed, looked up): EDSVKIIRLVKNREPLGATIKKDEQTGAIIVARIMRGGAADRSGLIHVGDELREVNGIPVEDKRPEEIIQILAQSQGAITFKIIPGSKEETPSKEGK

T9: APBA1_1, Q02410
T9 sequence (Q02410 651-752, limits assumed, looked up): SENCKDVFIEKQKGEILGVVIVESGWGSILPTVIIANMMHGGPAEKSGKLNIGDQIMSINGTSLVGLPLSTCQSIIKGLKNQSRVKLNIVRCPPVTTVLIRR

T10: TX1BP3, O14907
T10 sequence (O14907 10-122, limits assumed, looked up): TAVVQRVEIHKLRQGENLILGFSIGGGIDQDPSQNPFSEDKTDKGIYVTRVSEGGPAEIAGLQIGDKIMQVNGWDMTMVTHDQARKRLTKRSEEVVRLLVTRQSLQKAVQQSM


The binders below were run against T1, ARHGAP21, Q5T5U3 (assay: holdup assay). Settings: plain residues with an end cap or a label only (N-terminal biotin on a linker: ado-ado).
Parameters: key: below the threshold = too weak to quantify, mostly under pKd 3.1 to 4
In the case of NISYRRESAI [KCNJ4, P48050], the pKd is reported as “below the threshold”.

The binders below were run against T2, MPDZ_5, O75970 (assay: holdup assay). Settings: plain residues with an end cap or a label only (N-terminal biotin on a linker: ado-ado).
Parameters: key: below the threshold = too weak to quantify, mostly under pKd 3.1 to 4
With NISYRRESAI [KCNJ4, P48050] the pKd was “below the threshold”.

Each binder was assayed against T3, MPDZ_10, O75970 (assay: holdup assay). Settings: plain residues with an end cap or a label only (N-terminal biotin on a linker: ado-ado).
Parameters: key: below the threshold = too weak to quantify, mostly under pKd 3.1 to 4
With NISYRRESAI [KCNJ4, P48050] the pKd was “below the threshold”.

The binders below were run against PICK1, Q9NRD5 (assay: holdup assay). Settings: plain residues with an end cap or a label only (N-terminal biotin on a linker: ado-ado).
Sequence of PICK1, Q9NRD5 (Q9NRD5 17-115): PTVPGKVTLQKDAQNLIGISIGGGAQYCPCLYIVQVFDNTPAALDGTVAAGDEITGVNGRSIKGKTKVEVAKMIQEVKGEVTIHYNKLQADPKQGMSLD
Parameters: key: below the threshold = too weak to quantify, mostly under pKd 3.1 to 4
With NISYRRESAI [KCNJ4, P48050] the pKd was “below the threshold”.

Each binder was assayed against T4, DLG3_3, Q92796 (assay: holdup assay). Settings: plain residues with an end cap or a label only (N-terminal biotin on a linker: ado-ado).
Parameters: key: below the threshold = too weak to quantify, mostly under pKd 3.1 to 4
In the case of NISYRRESAI [KCNJ4, P48050], the pKd is reported as 3.98.

Each binder was assayed against PARD3_3, Q8TEW0 (assay: holdup assay). Settings: plain residues with an end cap or a label only (N-terminal biotin on a linker: ado-ado).
Sequence of PARD3_3, Q8TEW0 (Q8TEW0 582-685): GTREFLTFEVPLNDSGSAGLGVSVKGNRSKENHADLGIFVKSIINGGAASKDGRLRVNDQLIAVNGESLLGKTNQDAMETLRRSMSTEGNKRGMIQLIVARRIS
Parameters: key: below the threshold = too weak to quantify, mostly under pKd 3.1 to 4
In the case of NISYRRESAI [KCNJ4, P48050], the pKd is reported as “below the threshold”.

What follows are binders tested against SCRIB_2, Q14160 (assay: holdup assay). Settings: plain residues with an end cap or a label only (N-terminal biotin on a linker: ado-ado).
Sequence of SCRIB_2, Q14160 (Q14160 857-960): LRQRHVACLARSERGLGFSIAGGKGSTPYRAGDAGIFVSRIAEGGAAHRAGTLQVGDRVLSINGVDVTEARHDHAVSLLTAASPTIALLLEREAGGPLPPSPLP
Parameters: key: below the threshold = too weak to quantify, mostly under pKd 3.1 to 4
Work on NISYRRESAI [KCNJ4, P48050] yielded a pKd of 3.69.

Each binder was assayed against NHERF4_2, Q86UT5 (assay: holdup assay). Settings: plain residues with an end cap or a label only (N-terminal biotin on a linker: ado-ado).
Sequence of NHERF4_2, Q86UT5 (Q86UT5 220-308): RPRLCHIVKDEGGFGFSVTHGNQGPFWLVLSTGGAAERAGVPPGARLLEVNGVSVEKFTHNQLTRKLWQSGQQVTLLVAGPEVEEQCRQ
Parameters: key: below the threshold = too weak to quantify, mostly under pKd 3.1 to 4
For NISYRRESAI [KCNJ4, P48050], the pKd was “below the threshold”.

These binders were tested against DLG4_1, P78352 (assay: holdup assay). Settings: plain residues with an end cap or a label only (N-terminal biotin on a linker: ado-ado).
Sequence of DLG4_1, P78352 (P78352 62-152): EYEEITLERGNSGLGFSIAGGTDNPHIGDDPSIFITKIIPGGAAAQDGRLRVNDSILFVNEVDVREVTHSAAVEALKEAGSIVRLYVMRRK
Parameters: key: below the threshold = too weak to quantify, mostly under pKd 3.1 to 4
For NISYRRESAI [KCNJ4, P48050], the pKd was “below the threshold”.

These binders were tested against IL16_1, Q14005 (assay: holdup assay). Settings: plain residues with an end cap or a label only (N-terminal biotin on a linker: ado-ado).
Sequence of IL16_1, Q14005 (Q14005 210-306): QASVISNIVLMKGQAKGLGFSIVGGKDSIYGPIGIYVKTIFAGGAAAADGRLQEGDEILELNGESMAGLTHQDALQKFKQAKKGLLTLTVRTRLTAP
Parameters: key: below the threshold = too weak to quantify, mostly under pKd 3.1 to 4
Work on NISYRRESAI [KCNJ4, P48050] yielded a pKd of 3.55.

These binders were tested against MAGI2_3, Q86UL8 (assay: holdup assay). Settings: plain residues with an end cap or a label only (N-terminal biotin on a linker: ado-ado).
Sequence of MAGI2_3, Q86UL8 (Q86UL8 600-682): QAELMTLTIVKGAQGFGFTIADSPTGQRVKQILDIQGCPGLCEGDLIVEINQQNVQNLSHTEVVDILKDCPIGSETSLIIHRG
Parameters: key: below the threshold = too weak to quantify, mostly under pKd 3.1 to 4
For NISYRRESAI [KCNJ4, P48050], the pKd was “below the threshold”.

Each binder was assayed against T5, PDZD2_2, O15018 (assay: holdup assay). Settings: plain residues with an end cap or a label only (N-terminal biotin on a linker: ado-ado).
Parameters: key: below the threshold = too weak to quantify, mostly under pKd 3.1 to 4
For NISYRRESAI [KCNJ4, P48050], the pKd was 4.36.

Each binder was assayed against LDB3, O75112 (assay: holdup assay). Settings: plain residues with an end cap or a label only (N-terminal biotin on a linker: ado-ado).
Sequence of LDB3, O75112 (O75112 1-94): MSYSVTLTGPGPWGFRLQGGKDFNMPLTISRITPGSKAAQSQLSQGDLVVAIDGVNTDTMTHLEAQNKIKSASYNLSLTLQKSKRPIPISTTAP
Parameters: key: below the threshold = too weak to quantify, mostly under pKd 3.1 to 4
In the case of NISYRRESAI [KCNJ4, P48050], the pKd is reported as “below the threshold”.

These binders were tested against Inadl_4, Q8NI35 (assay: holdup assay). Settings: plain residues with an end cap or a label only (N-terminal biotin on a linker: ado-ado).
Sequence of Inadl_4, Q8NI35 (Q8NI35 547-651): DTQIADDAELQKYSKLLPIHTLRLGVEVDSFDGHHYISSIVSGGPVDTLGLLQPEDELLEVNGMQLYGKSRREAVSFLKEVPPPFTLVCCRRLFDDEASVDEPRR
Parameters: key: below the threshold = too weak to quantify, mostly under pKd 3.1 to 4
For NISYRRESAI [KCNJ4, P48050], the pKd was “below the threshold”.

These binders were tested against NHERF2_2, Q15599 (assay: holdup assay). Settings: plain residues with an end cap or a label only (N-terminal biotin on a linker: ado-ado).
Sequence of NHERF2_2, Q15599 (Q15599 142-238): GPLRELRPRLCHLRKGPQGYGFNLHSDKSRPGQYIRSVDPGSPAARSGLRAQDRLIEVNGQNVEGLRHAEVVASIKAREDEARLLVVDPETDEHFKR
Parameters: key: below the threshold = too weak to quantify, mostly under pKd 3.1 to 4
NISYRRESAI [KCNJ4, P48050] was tested, and the pKd was “below the threshold”.

Each binder was assayed against MAST2, Q6P0Q8 (assay: holdup assay). Settings: plain residues with an end cap or a label only (N-terminal biotin on a linker: ado-ado).
Sequence of MAST2, Q6P0Q8 (Q6P0Q8 1099-1202): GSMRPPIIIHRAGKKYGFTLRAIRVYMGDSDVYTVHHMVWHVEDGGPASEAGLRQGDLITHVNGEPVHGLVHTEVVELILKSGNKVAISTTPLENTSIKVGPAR
Parameters: key: below the threshold = too weak to quantify, mostly under pKd 3.1 to 4
For NISYRRESAI [KCNJ4, P48050], the pKd was 4.72.

What follows are binders tested against T6, NHERF3_1, Q5T2W1 (assay: holdup assay). Settings: plain residues with an end cap or a label only (N-terminal biotin on a linker: ado-ado).
Parameters: key: below the threshold = too weak to quantify, mostly under pKd 3.1 to 4
NISYRRESAI [KCNJ4, P48050] showed a pKd of 3.75.

The binders below were run against GRIP2_3, Q9C0E4 (assay: holdup assay). Settings: plain residues with an end cap or a label only (N-terminal biotin on a linker: ado-ado).
Sequence of GRIP2_3, Q9C0E4 (Q9C0E4 238-339): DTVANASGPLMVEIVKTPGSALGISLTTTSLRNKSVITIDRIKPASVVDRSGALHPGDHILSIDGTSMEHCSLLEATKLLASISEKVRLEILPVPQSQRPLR
Parameters: key: below the threshold = too weak to quantify, mostly under pKd 3.1 to 4
For NISYRRESAI [KCNJ4, P48050], the pKd was “below the threshold”.

Each binder was assayed against GRID2IP_2, A4D2P6 (assay: holdup assay). Settings: plain residues with an end cap or a label only (N-terminal biotin on a linker: ado-ado).
Sequence of GRID2IP_2, A4D2P6 (A4D2P6 272-370): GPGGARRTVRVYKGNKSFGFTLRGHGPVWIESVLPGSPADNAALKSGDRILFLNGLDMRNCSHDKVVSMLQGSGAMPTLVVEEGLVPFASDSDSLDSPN
Parameters: key: below the threshold = too weak to quantify, mostly under pKd 3.1 to 4
NISYRRESAI [KCNJ4, P48050] gave a pKd of 3.51.

What follows are binders tested against GRIP2_5, Q9C0E4 (assay: holdup assay). Settings: plain residues with an end cap or a label only (N-terminal biotin on a linker: ado-ado).
Sequence of GRIP2_5, Q9C0E4 (Q9C0E4 544-642): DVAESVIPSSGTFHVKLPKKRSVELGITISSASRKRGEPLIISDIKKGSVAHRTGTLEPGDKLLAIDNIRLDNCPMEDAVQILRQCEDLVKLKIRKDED
Parameters: key: below the threshold = too weak to quantify, mostly under pKd 3.1 to 4
With NISYRRESAI [KCNJ4, P48050] the pKd was “below the threshold”.

The binders below were run against T7, APBA1_2, Q02410 (assay: holdup assay). Settings: plain residues with an end cap or a label only (N-terminal biotin on a linker: ado-ado).
Parameters: key: below the threshold = too weak to quantify, mostly under pKd 3.1 to 4
In the case of NISYRRESAI [KCNJ4, P48050], the pKd is reported as “below the threshold”.

These binders were tested against T8, MPP7, Q5T2T1 (assay: holdup assay). Settings: plain residues with an end cap or a label only (N-terminal biotin on a linker: ado-ado).
Parameters: key: below the threshold = too weak to quantify, mostly under pKd 3.1 to 4
For NISYRRESAI [KCNJ4, P48050], the pKd was “below the threshold”.

The binders below were run against T9, APBA1_1, Q02410 (assay: holdup assay). Settings: plain residues with an end cap or a label only (N-terminal biotin on a linker: ado-ado).
Parameters: key: below the threshold = too weak to quantify, mostly under pKd 3.1 to 4
NISYRRESAI [KCNJ4, P48050] was tested, and the pKd was “below the threshold”.

These binders were tested against NOS1, P29475 (assay: holdup assay). Settings: plain residues with an end cap or a label only (N-terminal biotin on a linker: ado-ado).
Sequence of NOS1, P29475 (P29475 9-101): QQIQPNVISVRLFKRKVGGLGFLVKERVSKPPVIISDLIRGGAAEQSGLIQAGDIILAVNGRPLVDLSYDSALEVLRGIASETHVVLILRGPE
Parameters: key: below the threshold = too weak to quantify, mostly under pKd 3.1 to 4
NISYRRESAI [KCNJ4, P48050] gave a pKd of 3.62.

These binders were tested against NHERF4_4, Q86UT5 (assay: holdup assay). Settings: plain residues with an end cap or a label only (N-terminal biotin on a linker: ado-ado).
Sequence of NHERF4_4, Q86UT5 (Q86UT5 464-550): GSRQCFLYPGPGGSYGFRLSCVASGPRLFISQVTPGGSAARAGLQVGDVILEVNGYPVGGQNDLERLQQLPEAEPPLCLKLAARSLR
Parameters: key: below the threshold = too weak to quantify, mostly under pKd 3.1 to 4
In the case of NISYRRESAI [KCNJ4, P48050], the pKd is reported as “below the threshold”.

What follows are binders tested against MAGI1_1, Q96QZ7 (assay: holdup assay). Settings: plain residues with an end cap or a label only (N-terminal biotin on a linker: ado-ado).
Sequence of MAGI1_1, Q96QZ7 (Q96QZ7 1-106): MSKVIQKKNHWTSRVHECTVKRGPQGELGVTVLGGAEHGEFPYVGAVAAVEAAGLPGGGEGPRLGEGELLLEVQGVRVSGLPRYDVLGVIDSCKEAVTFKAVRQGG
Parameters: key: below the threshold = too weak to quantify, mostly under pKd 3.1 to 4
NISYRRESAI [KCNJ4, P48050] was tested, and the pKd was “below the threshold”.

The binders below were run against T10, TX1BP3, O14907 (assay: holdup assay). Settings: plain residues with an end cap or a label only (N-terminal biotin on a linker: ado-ado).
Parameters: key: below the threshold = too weak to quantify, mostly under pKd 3.1 to 4
Binder NISYRRESAI [KCNJ4, P48050] has a pKd of 4.82.
